Key:
[1] = molecular target: T1, Murine APRIL (mouse, UniProt Q9D777 105-241, limits assumed); assay: shotgun scan, phage display
T1 sequence (looked up): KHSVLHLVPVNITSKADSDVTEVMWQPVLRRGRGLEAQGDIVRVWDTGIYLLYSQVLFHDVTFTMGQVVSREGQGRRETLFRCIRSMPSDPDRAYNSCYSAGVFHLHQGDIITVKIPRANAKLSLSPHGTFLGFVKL
Text: Phage from each of the libraries described above were subjected to rounds of binding selection against APRIL, BAFF, or anti-tag antibody (3C8:2F4 Genentech, Inc.) immobilized on 96-well Nunc Maxisorp immunoplates (Sidhu, 2001). BSA-coated wells were used to determine non-specific background binding. Phage eluted from each target were propagated in E. coli XL1-Blue in the presence of M13K07 helper phage; amplified phage were used for selection against the same target in the […] round. […] Enrichment was calculated from the ratio of the phage titer eluted from the target-coated wells to the phage titer eluted from the BSA-coated wells. Individual clones from each library and selection target were then grown in a 96-well format in 400 ul of 2YT medium supplemented with carbenicillin and KO7 helper phage. […] Sequences of acceptable quality were translated and aligned. For APRIL-binding, 71, 40, and 54 sequences were analyzed from libraries one, two and three, respectively. For BAFF-binding, 70, 50, and 53 sequences were analyzed for libraries one, two and three, respectively. For the display selection, a minimum of 47 sequences were analyzed for each library. […] F values describe the effect of mutation on target binding, while accounting for differences in display efficiencies, with values >1 representing deleterious mutations and those <1 representing favorable mutations.

[2] = molecular target: T1, Murine APRIL; assay: NNS library, phage display;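 note: ligand versus display occurrence-to-degeneracy ratio and higher means enriched by binding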
Protocol: (§1) This new phage library was subjected to sorting against either BAFF, APRIL or the display target antibody. After 3 rounds of sorting, approximately 48 clones were picked from each selection and the DNA sequences of the phage clones were determined. […] The normalized F′ value corrects for display bias and is calculated as the percent occurrence to percent degeneracy ratio for ligand selection divided by the percent occurrence to percent degeneracy ratio for display efficiency. Percent occurrence is calculated by dividing the number of times a particular amino acid appeared at a particular position by the total number of amino acids sequenced at that position followed by multiplying by 100. Percent degeneracy is calculated by dividing the degeneracy in code for a particular amino acid divided by the total degeneracy possible at that position followed by multiplying by 100 (e.g., if only A, G and I were selected, total degeneracy possible would be 5).

[3] = molecular target: human BAFF (human, UniProt Q9Y275 82-285, limits assumed); assay: NNS library, phage display;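 note: ligand versus display occurrence-to-degeneracy ratio and higher means enriched by binding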
Protocol: as §1

Chain of human BAFF (Q9Y275 82-285 limits assumed): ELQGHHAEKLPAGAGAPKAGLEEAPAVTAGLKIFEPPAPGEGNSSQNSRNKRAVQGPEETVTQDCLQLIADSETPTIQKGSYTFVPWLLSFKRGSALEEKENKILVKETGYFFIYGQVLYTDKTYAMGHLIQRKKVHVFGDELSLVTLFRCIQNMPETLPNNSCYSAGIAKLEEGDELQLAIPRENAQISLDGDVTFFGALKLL

## SLSCRKEQGKFYDHLLRDCISCASICGQHPKQCAYFCANKLR (receptor, phage library variant, format as m9) [TACI_d2 E105A]
[1]
  F (APRIL): 1.7

## SLSCRKEQGKGYDHLLRDCISCASICGQHPKQCAYFCENKLR (receptor, phage library variant, format as m9) [TACI_d2 F78G]
[2]
  F' APRIL: 0
[3]
  F' BAFF: 0

## SLSCRKEQGKQYDHLLRDCISCASICGQHPKQCAYFCENKLR (receptor, phage library variant, format as m9) [TACI_d2 F78Q]
[2]
  F' APRIL: 0
[3]
  F' BAFF: 0

## SLSCRKEQGKFYDHLLRDCISCASICGQHPKACAYFCENKLR (receptor, phage library variant, format as m9) [TACI_d2 Q99A]
[1]
  F (APRIL): 1.9

## SLSCRKEQGKEYDHLLRDCISCASICGQHPKQCAYFCENKLR (receptor, phage library variant, format as m9) [TACI_d2 F78E]
[2]
  F' APRIL: 0
[3]
  F' BAFF: 5

## SLSCRKEQGKIYDHLLRDCISCASICGQHPKQCAYFCENKLR (receptor, phage library variant, format as m9) [TACI_d2 F78I]
[2]
  F' APRIL: 7
[3]
  F' BAFF: 10

## SLSCRKEQGKHYDHLLRDCISCASICGQHPKQCAYFCENKLR (receptor, phage library variant, format as m9) [TACI_d2 F78H]
[2]
  F' APRIL: 0
[3]
  F' BAFF: 0

## SLSCRKEQGKLYDHLLRDCISCASICGQHPKQCAYFCENKLR (receptor, phage library variant, format as m9) [TACI_d2 F78L]
[2]
  F' APRIL: 0
[3]
  F' BAFF: 0

## SLSCRKEQGKPYDHLLRDCISCASICGQHPKQCAYFCENKLR (receptor, phage library variant, format as m9) [TACI_d2 F78P]
[2]
  F' APRIL: 0
[3]
  F' BAFF: 0

## SLSCRKEQGKFYDHLLRDCIACASICGQHPKQCAYFCENKLR (receptor, phage library variant, format as m9) [TACI_d2 S88A]
[1]
  F (APRIL): 3.8

## SLSCRKEQGKFYDHLLRDCISCASICGQAPKQCAYFCENKLR (receptor, phage library variant, format as m9) [TACI_d2 H96A]
[1]
  F (APRIL): 12

## SLSCRKEQGKFYDHLLRDCISCASICGQDPKQCAYFCENKLR (receptor, phage library variant, format as m9) [TACI_d2 H96D]
[1]
  F (APRIL): > 24

## SLSCRKEQGKFYDHLLGDCISCASICGQHPKQCAYFCENKLR (receptor, phage library variant, format as m9) [TACI_d2 R84G]
[2]
  F' APRIL: 1
[1]
  F (APRIL): 1.8

## SLSCRKEQGKFYDHLLRDCISCASICGQHPEQCAYFCENKLR (receptor, phage library variant, format as m9) [TACI_d2 K98E]
[1]
  F (APRIL): 6.9

## SLSCREEQGKFYDHLLRDCISCASICGQHPKQCAYFCENKLR (receptor, phage library variant, format as m9) [TACI_d2 K73E]
[1]
  F (APRIL): 7.7

## SLSCRKEQGKFYDHLLRDCISCASICGQHPKQCAYFCEDKLR (receptor, phage library variant, format as m9) [TACI_d2 N106D]
[1]
  F (APRIL): 1.2

## SLSCRKEQGKCYDHLLRDCISCASICGQHPKQCAYFCENKLR (receptor, phage library variant, format as m9) [TACI_d2 F78C]
[2]
  F' APRIL: 0
[3]
  F' BAFF: 0

## SLSCRKEQGKDYDHLLRDCISCASICGQHPKQCAYFCENKLR (receptor, phage library variant, format as m9) [TACI_d2 F78D]
[2]
  F' APRIL: 0
[3]
  F' BAFF: 0

## SLSCRKEQGKFYDDLLRDCISCASICGQHPKQCAYFCENKLR (receptor, phage library variant, format as m9) [TACI_d2 H81D]
[1]
  F (APRIL): 0.9

## SLSCRKEQGKFYDHLLRDCISCAAICGQHPKQCAYFCENKLR (receptor, phage library variant, format as m9) [TACI_d2 S91A]
[1]
  F (APRIL): 2.1

## SLSCRKEQGKFYDHLLRDCISCASICGPHPKQCAYFCENKLR (receptor, phage library variant, format as m9) [TACI_d2 Q95P]
[1]
  F (APRIL): > 39

## SLSCRKEQAKFYDHLLRDCISCASICGQHPKQCAYFCENKLR (receptor, phage library variant, format as m9) [TACI_d2 G76A]
[1]
  F (APRIL): 1.6

## SLSCRKEQGKFYDHLLPDCISCASICGQHPKQCAYFCENKLR (receptor, phage library variant, format as m9) [TACI_d2 R84P]
[2]
  F' APRIL: 0
[1]
  F (APRIL): > 22

## SLSCRKEQGKFYDHLLRDCISCASICGQHPKQCAYFCENELR (receptor, phage library variant, format as m9) [TACI_d2 K107E]
[1]
  F (APRIL): 2.1

## SLSCRKEQGKFYDHLLRDCISCASICGQHPKQCASFCENKLR (receptor, phage library variant, format as m9) [TACI_d2 Y102S]
[1]
  F (APRIL): 1.5

## SLSCRKEQGKMYDHLLRDCISCASICGQHPKQCAYFCENKLR (receptor, phage library variant, format as m9) [TACI_d2 F78M]
[2]
  F' APRIL: 0
[3]
  F' BAFF: 1

## SLSCRKEQGKFSDHLLRDCISCASICGQHPKQCAYFCENKLR (receptor, phage library variant, format as m9) [TACI_d2 Y79S]
[2]
  F' APRIL: 0
[1]
  F (APRIL): 31

## SLSCRKEQGKFYDHLARDCISCASICGQHPKQCAYFCENKLR (receptor, phage library variant, format as m9) [TACI_d2 L83A]
[1]
  F (APRIL): 31

## SLSCRKEQGKFYDHLLRDCISCASICGQHAKQCAYFCENKLR (receptor, phage library variant, format as m9) [TACI_d2 P97A]
[1]
  F (APRIL): > 20

## SLSCRKEQGKKYDHLLRDCISCASICGQHPKQCAYFCENKLR (receptor, phage library variant, format as m9) [TACI_d2 F78K]
[2]
  F' APRIL: 0
[3]
  F' BAFF: 0

## SLSCRKEQGKFYDHLLRDCISCASICGAHPKQCAYFCENKLR (receptor, phage library variant, format as m9) [TACI_d2 Q95A]
[1]
  F (APRIL): 6.6

## SLSCRKEQGKFYDHLLRDCISCASICGQHPKQCAYSCENKLR (receptor, phage library variant, format as m9) [TACI_d2 F103S]
[1]
  F (APRIL): 5.8

## SLSCRKEQGKFYDHLLRDCISCASICGQHPAQCAYFCENKLR (receptor, phage library variant, format as m9) [TACI_d2 K98A]
[1]
  F (APRIL): 3.5

## SLSCRKEQGKFYDHLPRDCISCASICGQHPKQCAYFCENKLR (receptor, phage library variant, format as m9) [TACI_d2 L83P]
[1]
  F (APRIL): > 20

## SLSCRKEQGKFYDHLLRDCISCASICGQHPKQCAYFCENKPR (receptor, phage library variant, format as m9) [TACI_d2 L108P]
[1]
  F (APRIL): 1.4

## SLSCRKEQGKFYDHLLRDCISCASICGEHPKQCAYFCENKLR (receptor, phage library variant, format as m9) [TACI_d2 Q95E]
[1]
  F (APRIL): 21

## SLSCRKEQGAFYDHLLRDCISCASICGQHPKQCAYFCENKLR (receptor, phage library variant, format as m9) [TACI_d2 K77A]
[1]
  F (APRIL): 1

## SLSCRKEQGKNYDHLLRDCISCASICGQHPKQCAYFCENKLR (receptor, phage library variant, format as m9) [TACI_d2 F78N]
[2]
  F' APRIL: 0
[3]
  F' BAFF: 0

## SLSCRKEQGKFYDALLRDCISCASICGQHPKQCAYFCENKLR (receptor, phage library variant, format as m9) [TACI_d2 H81A]
[1]
  F (APRIL): 2

— US20080181886A1 (Genentech, published 2008)
